According to the Human Domainome abundance scans (Beltran et al. 2025):
± gives the uncertainty stated by the source.

B1: Nucleosome-remodeling factor subunit BPTF, residues 2862 to 2918; numbered along this chain, Q12830 (parent)
chain: TKKDTKLYCICKTPYDESKFYIGCDRCQNWYHGRCVGILQSEAELIDEYVCPQCQST

Variants of: B1
Assay: abundance fitness (aPCA) (normalised: wild type 0, dead -1); higher = more abundant; growth selection in yeast, the domain comes from the species named
Conditions: Homo sapiens

Compared with Q28H, K19G is lower in abundance fitness: 0.009 ± 0.11 for the first, -0.244 ± 0.11 for the second.

K19D and K19Q are within error of each other in abundance fitness: 0.044 ± 0.12 for the first, -0.097 ± 0.13 for the second.

Going from K19F to K19A, the abundance fitness rises from -0.351 ± 0.16 to -0.069 ± 0.096.

K19Y and K19T are within error of each other in abundance fitness: -0.286 ± 0.13 for the first, -0.231 ± 0.1 for the second.

P14H and P14V are within error of each other in abundance fitness: -0.275 ± 0.11 for the first, -0.229 ± 0.087 for the second.

Going from P14G to I10V, the abundance fitness rises from -0.42 ± 0.075 to -0.218 ± 0.071.

I10M and I10D are within error of each other in abundance fitness: -0.252 ± 0.11 for the first, -0.278 ± 0.11 for the second.

Compared with I10Y, I10Q is lower in abundance fitness: -0.234 ± 0.11 for the first, -0.472 ± 0.1 for the second.

Going from I10E to I10P, the abundance fitness falls from -0.129 ± 0.089 to -0.395 ± 0.096.

First: I10H
Second: Y49M
The abundance fitness of the first is higher: -0.084 ± 0.17 for the first, -0.481 ± 0.11 for the second.

Going from Y49W to Y49V, the abundance fitness falls from -0.055 ± 0.12 to -0.381 ± 0.091.

Y49G and Y49H are within error of each other in abundance fitness: -0.526 ± 0.11 for the first, -0.491 ± 0.17 for the second.

Y49R and Y49A are within error of each other in abundance fitness: -0.47 ± 0.085 for the first, -0.382 ± 0.094 for the second.

Compared with D47G, D47V is lower in abundance fitness: 0.054 ± 0.068 for the first, -0.138 ± 0.088 for the second.

D47L and D47T are within error of each other in abundance fitness: -0.058 ± 0.072 for the first, -0.051 ± 0.092 for the second.

D47C and G33Y are within error of each other in abundance fitness: -0.043 ± 0.15 for the first, 0.053 ± 0.12 for the second.

First: G33Q
Second: G33D
The abundance fitness of the first is higher: 0 ± 0.093 for the first, -0.229 ± 0.098 for the second.

Compared with G33K, G33C is higher in abundance fitness: -0.271 ± 0.15 for the first, 0.196 ± 0.12 for the second.

First: G33V
Second: K3N
The abundance fitness of the first is higher: -0.098 ± 0.064 for the first, -0.379 ± 0.15 for the second.

First: K3W
Second: K3M
The abundance fitness of the first is lower: -0.629 ± 0.12 for the first, -0.152 ± 0.11 for the second.

K3V and K3E are within error of each other in abundance fitness: -0.009 ± 0.073 for the first, 0.014 ± 0.12 for the second.

First: K3H
Second: K3L
The abundance fitness of the first is lower: -0.424 ± 0.16 for the first, -0.111 ± 0.073 for the second.

K3S and K3T are within error of each other in abundance fitness: 0.036 ± 0.078 for the first, 0.013 ± 0.084 for the second.

Compared with K3Y, K3C is lower in abundance fitness: -0.273 ± 0.13 for the first, -0.697 ± 0.15 for the second.

K3I and D25W are within error of each other in abundance fitness: -0.057 ± 0.097 for the first, -0.176 ± 0.083 for the second.

Compared with D25K, D25F is lower in abundance fitness: 0.154 ± 0.11 for the first, -0.168 ± 0.16 for the second.

D25P and D25G are within error of each other in abundance fitness: -0.204 ± 0.081 for the first, -0.041 ± 0.092 for the second.

T57V and T57Q are within error of each other in abundance fitness: -0.052 ± 0.14 for the first, -0.469 ± 0.43 for the second.

T57P and T57S are within error of each other in abundance fitness: -0.044 ± 0.16 for the first, 0.068 ± 0.11 for the second.

First: T57L
Second: K12T
The abundance fitness of the first is lower: -0.569 ± 0.28 for the first, -0.106 ± 0.074 for the second.

K12F and K12M are within error of each other in abundance fitness: -0.253 ± 0.084 for the first, -0.167 ± 0.095 for the second.

S56G and Y31H are within error of each other in abundance fitness: -0.195 ± 0.27 for the first, -0.592 ± 0.13 for the second.

Going from Y31G to Y31N, the abundance fitness rises from -0.804 ± 0.079 to -0.573 ± 0.11.

First: Y31E
Second: Y31F
The abundance fitness of the first is lower: -0.772 ± 0.11 for the first, 0.01 ± 0.081 for the second.

Y31Q and Y31W are within error of each other in abundance fitness: -0.706 ± 0.11 for the first, -0.527 ± 0.09 for the second.

R34S and R34E are within error of each other in abundance fitness: 0.051 ± 0.065 for the first, 0.005 ± 0.14 for the second.

R34K and R34T are within error of each other in abundance fitness: 0.109 ± 0.1 for the first, -0.065 ± 0.078 for the second.

I22Q and I22C are within error of each other in abundance fitness: -0.641 ± 0.11 for the first, -0.806 ± 0.16 for the second.

I22H and I22W are within error of each other in abundance fitness: -0.678 ± 0.22 for the first, -0.533 ± 0.11 for the second.

Going from I22T to I22N, the abundance fitness falls from -0.398 ± 0.12 to -0.803 ± 0.18.

L39E and L39V are within error of each other in abundance fitness: 0.225 ± 0.48 for the first, -0.286 ± 0.26 for the second.

L39T and L39F are within error of each other in abundance fitness: -0.08 ± 0.39 for the first, -0.006 ± 0.33 for the second.
